Test results published in US7799901B2, “Modulators of the function of FAS receptors and other proteins” (Yeda Research and Development Co. Ltd., priority 1995, dated 2010).

Biological target: T1, FAS-R (Homo sapiens, UniProt P25445)
T1 construct: the FAS-IC extends-from amino acid residues 175-319 of the intact FAS-R; expressed in transfected cells; host or cells: SFY526 yeast
T1 sequence (P25445 191-335): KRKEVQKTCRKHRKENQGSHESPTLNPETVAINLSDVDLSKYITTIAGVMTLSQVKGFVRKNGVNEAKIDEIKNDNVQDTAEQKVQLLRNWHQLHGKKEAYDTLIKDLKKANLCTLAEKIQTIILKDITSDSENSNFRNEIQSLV
Assay: Two-hybrid β-galactosidase filter assay (FIG. 5), binding to FAS-R
Settings: two hybrid test
Method: The yeast two-hybrid test was further applied to evaluate the specificity of binding of MACH to MORT-1, in particular, to define the region in MORT-1 to which MACH binds, as well as to determine which of the MACH ORFs interacts with MORT-1, the procedures being as set forth herein above in Examples 1 and 2. Briefly, various MORT-1 and MACH constructs were prepared for testing the interaction of the proteins encoded by the Gal4 DNA-binding domain and activation domain constructs within transfected SFY526 yeast cells as assessed by the β-galactosidase expression filter assay. The DNA-binding domain constructs were prepared in pGBT9 vectors and the activation domain constructs were prepared in pGAD-GM vectors. […] In the assay, the development of color was determined, where the greater the color development, the greater the interaction between the constructs encoded by the DNA-binding domain and activation domain; Color development was depicted by symbols, where “+++” and “+” indicate the development of a strong color within 30 and 90 min. of the assay, respectively, and “−−−” indicates the lack of development of color within 24 hrs. of the assay. […]
In FIG. 5, there is shown the results of the interaction of MORT-1 and MACH within transfected yeast cells. […] Their interaction was assessed by a β-galactosidase expression filter assay as described in Boldin et al (1995b). […]

B1: MACHβ1: MACH isoform, cDNA SEQ ID NO: 4, amino acid SEQ ID NO: 5; lacks the CED3/ICE homology region (protein)
chain: MDFSRNLYDIGEQLDSEDLASLKFLSLDYIPQRKQEPIKDALMLFQRLQEKRMLEESNLSFLKELLFRINRLDLLITYLNTRKEEMERELQTPGRAQISAYRVMLYQISEEVSRSELRSFKFLLQEEISKCKLDDDMNLLDIFIEMEKRVILGEGKLDILKRVCAQINKSLLKIINDYEEFSKERSSSLEGSPDEFSNDFGQSLPNEKQTSGILSDHQQSQFCKSTGESAQTSQH
- binding to FAS-R in transfected yeast: unable to bind
